These results are taken from paper PMC6611850.

One may read the stoichiometry N as the number of molecules, sites or subunits per partner or assembly.

The target of assay [1] is T. thermophilus Csm3 (T. thermophilus). The assay can be described thus: cryo-EM structure; TthCsm bound to a 50-nt complementary target RNA, with noncomplementary ssDNA and 1 mM EDTA; 3.8 Å.
Assay [2] has as its target T. thermophilus Csm2 (T. thermophilus). Described as above.

Turning to T. thermophilus Csm3 (natural protein), the stoichiometry N in assay [1] is 6.

On to T. thermophilus Csm2 (natural protein), for which, in assay [2], the stoichiometry N was found to be 4.
